Target: purified human factor X (UniProt P00742)
Sequence of UniProt P00742 (P00742 whole entry, looked up): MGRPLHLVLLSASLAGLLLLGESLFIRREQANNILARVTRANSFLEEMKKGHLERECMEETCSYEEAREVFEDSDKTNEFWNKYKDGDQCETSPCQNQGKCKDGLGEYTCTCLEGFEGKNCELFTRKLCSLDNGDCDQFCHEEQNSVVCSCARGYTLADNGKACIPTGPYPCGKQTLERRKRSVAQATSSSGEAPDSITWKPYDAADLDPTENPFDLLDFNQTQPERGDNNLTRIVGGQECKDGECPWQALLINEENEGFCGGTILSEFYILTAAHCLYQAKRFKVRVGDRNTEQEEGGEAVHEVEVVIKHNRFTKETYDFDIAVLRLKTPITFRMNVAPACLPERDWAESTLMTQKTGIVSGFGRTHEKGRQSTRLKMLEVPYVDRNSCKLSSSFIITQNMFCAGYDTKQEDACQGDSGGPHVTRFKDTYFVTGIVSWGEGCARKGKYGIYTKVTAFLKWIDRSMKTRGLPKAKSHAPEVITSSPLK

Substance | KM for factor X, with 0.4 nM FVIIIa [µM] | KM for factor X, without FVIIIa [µM] | Kcat, with 0.4 nM FVIIIa [s⁻¹] | Kcat, without FVIIIa [s⁻¹] | Vmax of factor Xa generation, with 0.4 nM FVIIIa [nM FXa/min] | Vmax of factor Xa generation, without FVIIIa [nM FXa/min] | kcat/KM, with 0.4 nM FVIIIa [M⁻¹ s⁻¹] | kcat/KM, without FVIIIa [M⁻¹ s⁻¹]
recombinant human factor IX IX-1, single alanine replacement at residue 86 | 0.0554 | 0.532 | 5.09 | 0.000225 | 15.1 | 0.14 | 9.3e+07 | 429
recombinant wild type human factor IX (IX-7) | 0.054 | 0.757 | 14.2 | 0.000262 | 27.8 | 0.16 | 2.64e+08 | 353

Reference: patent US20080167219
